Laboratory results: patent publication US20120316071A1 (published 2012)

Experiments:
[1] = target: T1, rHuman Erythropoietin R/Fc Chimera, CF (R&D Systems Cat#963-ER) (human, UniProt P19235 25-250); experiment: Multispot ECL (MSD), antigen spotted on plate, Fab 0.25 uM; blank spot 6344
T1 construct: Bought recombinant protein; also called EPO R/Fc; Epo R; Fc part of the bought chimera not given
T1 sequence (looked up): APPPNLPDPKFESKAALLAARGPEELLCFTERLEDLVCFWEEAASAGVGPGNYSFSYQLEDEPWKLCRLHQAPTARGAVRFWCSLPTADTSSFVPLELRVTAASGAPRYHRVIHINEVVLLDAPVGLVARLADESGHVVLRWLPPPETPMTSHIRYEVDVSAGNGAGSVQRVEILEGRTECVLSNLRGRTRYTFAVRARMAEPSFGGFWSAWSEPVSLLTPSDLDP

[2] = target: T2, rHuman EGF R/Fc Chimera, CF (R&D Systems Cat#344-ER) (human, UniProt P00533 25-645); experiment: as above
T2 construct: Bought recombinant protein; also called epidermal growth factor receptor (EGF R); Fc part of the bought chimera not given

[3] = target: T3, rHuman IGF-1 sR, CF (R&D Systems Cat#391-GR) (human, UniProt P08069 31-932); experiment: as above
T3 construct: Bought recombinant soluble receptor; also called insulin-like growth factor-1 soluble receptor

[4] = target: T1, rHuman Erythropoietin R/Fc Chimera, CF …; experiment: Multispot ECL (MSD), antigen spotted on plate, Fab 0.00391 uM; blank spot 576
[5] = target: T2, rHuman EGF R/Fc Chimera, CF (R&D …); experiment: as above
[6] = target: T3, rHuman IGF-1 sR, CF (R&D Systems …); experiment: as above
[7] = target: T1, rHuman Erythropoietin R/Fc Chimera, CF …; experiment: Multispot ECL (MSD), antigen spotted on plate, Fab 0.01563 uM; blank spot 906
[8] = target: T2, rHuman EGF R/Fc Chimera, CF (R&D …); experiment: as above
[9] = target: T3, rHuman IGF-1 sR, CF (R&D Systems …); experiment: as above
[10] = target: T1, rHuman Erythropoietin R/Fc Chimera, CF …; experiment: Multispot ECL (MSD), antigen spotted on plate, Fab 0.0625 uM; blank spot 1738
[11] = target: T2, rHuman EGF R/Fc Chimera, CF (R&D …); experiment: as above
[12] = target: T3, rHuman IGF-1 sR, CF (R&D Systems …); experiment: as above
[13] = target: T4, rHuman HGF R/c-MET/Fc Chimera, CF (R&D Systems Cat#358-MT/CF) (human, UniProt P08581 25-932); experiment: ECL multispot (MSD) assay, antigen spotted on plate, 20 nM Fab;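 note: purified Fab bound to plate-spotted antigen for 1 h at 20 °C, labelled detection antibody added, ratio of antigen ECL signal to same-well blank, ratio ≥4 counted as binder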
T4 construct: Bought recombinant protein; also called HGF R/Fc; hepatocyte growth factor receptor; Fc part of the bought chimera not given
T4 sequence (P08581 25-932, change not shown): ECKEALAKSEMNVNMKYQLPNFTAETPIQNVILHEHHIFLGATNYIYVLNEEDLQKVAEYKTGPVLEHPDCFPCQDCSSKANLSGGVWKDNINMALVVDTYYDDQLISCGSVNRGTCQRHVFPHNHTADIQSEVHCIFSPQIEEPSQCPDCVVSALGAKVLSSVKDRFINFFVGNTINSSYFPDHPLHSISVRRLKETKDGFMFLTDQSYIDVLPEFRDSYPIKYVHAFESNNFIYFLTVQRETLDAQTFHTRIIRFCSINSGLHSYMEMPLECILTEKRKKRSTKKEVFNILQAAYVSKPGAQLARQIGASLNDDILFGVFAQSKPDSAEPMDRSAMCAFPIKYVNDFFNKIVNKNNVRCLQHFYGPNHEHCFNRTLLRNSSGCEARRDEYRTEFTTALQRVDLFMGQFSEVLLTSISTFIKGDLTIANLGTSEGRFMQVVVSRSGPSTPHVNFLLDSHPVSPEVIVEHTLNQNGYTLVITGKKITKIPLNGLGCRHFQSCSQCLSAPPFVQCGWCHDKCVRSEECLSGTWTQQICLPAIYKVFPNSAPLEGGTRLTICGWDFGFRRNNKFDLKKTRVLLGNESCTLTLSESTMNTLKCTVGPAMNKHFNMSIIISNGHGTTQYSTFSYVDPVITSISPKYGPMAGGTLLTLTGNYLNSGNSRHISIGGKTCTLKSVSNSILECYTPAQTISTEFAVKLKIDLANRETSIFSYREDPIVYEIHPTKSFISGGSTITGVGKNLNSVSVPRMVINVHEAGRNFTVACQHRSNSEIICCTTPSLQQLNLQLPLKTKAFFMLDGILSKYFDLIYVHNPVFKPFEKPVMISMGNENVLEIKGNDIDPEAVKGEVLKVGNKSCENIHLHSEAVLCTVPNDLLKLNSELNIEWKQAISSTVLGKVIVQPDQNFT

[14] = target: T5, rHuman Notch-1/Fc Chimera, CF (R&D Systems Cat#3647-TK) (human, UniProt P46531 19-526); experiment: as above
T5 construct: Bought recombinant protein; Fc part of the bought chimera not given

[15] = target: T6, rHuman CD44/Fc Chimera, CF (R&D Systems Cat#3660-CD) (human, UniProt P16070 21-220); experiment: as above
T6 construct: Bought recombinant protein; Fc part of the bought chimera not given

[16] = target: T7, rHuman IGF-1 sR, CF (R&D Systems Cat#391-GR) (human, UniProt P08069 31-932); experiment: as above
T7 construct: Bought soluble receptor; also called insulin-like growth factor-1 soluble receptor

[17] = target: T8, rHuman P-Cadherin/Fc Chimera, CF (R&D Systems Cat#861-PC) (human, UniProt P22223 108-654); experiment: as above
T8 construct: Bought recombinant protein; Fc part of the bought chimera not given

[18] = target: T9, rHuman Erythropoietin R/Fc Chimera, CF (R&D Systems Cat#963-ER) (human, UniProt P19235 25-250); experiment: as above
T9 construct: Bought recombinant protein; also called EPO R; EPO R/Fc; Fc part of the bought chimera not given
T9 sequence (looked up): T1 sequence (looked up)

[19] = target: T10, Recombinant Human DLL4 (R&D Systems Cat#1506-D4/CF) (human, UniProt Q9NR61 27-524); experiment: as above
T10 construct: Bought recombinant protein; also called delta-like protein 4; rHuman DLL4

[20] = target: T11, rHuman ErbB2/Fc Chimera, CF (R&D Systems Cat#1129-ER) (human, UniProt P04626 23-652); experiment: as above
T11 construct: Bought recombinant protein; also called human epidermal growth factor 2 receptor; Fc part of the bought chimera not given

[21] = target: T12, rHuman EGF R/Fc Chimera, CF (R&D Systems Cat#344-ER) (human, UniProt P00533 25-645); experiment: as above
T12 construct: Bought recombinant protein; also called epidermal growth factor receptor; Fc part of the bought chimera not given

B1: Fab VH1-46_IGHD2-15*01_IGHJ2*01 & L2_IGKJ1*01 (Fab, V domains shown)
VH: QVQLVQSGAEVKKPGASVKVSCKASGYTFTSYYMHWVRQAPGQGLEWMGIINPSGGSTSYAQKFQGRVTMTRDTSTSTVYMELSSLRSEDTAVYYCAREGYCSGGSCYSYWYFDLWGRGTLVTVSS
VL: not shown
notes: Germline library Fab made in E. coli; VH was cloned into Plasmid A (heavy chain constant region CH1, His6 and Flag tags) and the kappa VL into Plasmid C (kappa CL)
[1]
  ECL signal: 49200
[2]
  ECL signal: 117000
[3]
  ECL signal: 11000
[4]
  ECL signal: 5020
[5]
  ECL signal: 35900
[6]
  ECL signal: 822
[7]
  ECL signal: 11300
[8]
  ECL signal: 70800
[9]
  ECL signal: 1740
[10]
  ECL signal: 21100
[11]
  ECL signal: 94800
[12]
  ECL signal: 3150

B2: Fab VH3-23_IGHD2-21*01>3_IGHJ6*01 H100E/S108P/Y113G Y59A & V2-13_IGLJ2*01 (Fab, V domains shown)
VH: EVQLLESGGGLVQPGGSLRLSCAASGFTFSSYAMSWVRQAPGKGLEWVSSISGSGGSTAYADSVKGRFTISRDNSKNTLYLQMNSLRAEDTAVYYCAKEEIVVVIAIPYYYYGYGMDVWGQGTLVTVSS
VL: SSELTQDPAVSVALGQTVRITCQGDSLRSYYASWYQQKPGQAPVLVIYGKNNRPSGIPDRFSGSSSGNTASLTITGAQAEDEADYYCNSRDSSGNHLVVFGGGTKLTVL
notes: Tested as a Fab made in E. coli; also called EPG Y59A
[13]
  ECL signal/blank ratio (read-out not given): 3.3
[14]
  ECL signal/blank ratio (read-out not given): 2.1
[15]
  ECL signal/blank ratio (read-out not given): 1.4
[16]
  ECL signal/blank ratio (read-out not given): 1.3
[17]
  ECL signal/blank ratio (read-out not given): 2.4
[18]
  ECL signal/blank ratio (read-out not given): 2.5
[19]
  ECL signal/blank ratio (read-out not given): 2.8
[20]
  ECL signal/blank ratio (read-out not given): 1.6
[21]
  ECL signal/blank ratio (read-out not given): 1.4
